Experimental data: US7528106B2, “Compositions and methods for treatment of neovascular diseases” (The Scripps Research Institute, priority 2004, dated 2009)

System: deep retinal vascular network formation in neonatal Balb/C mice
Test: Neonatal mouse retinal angiogenesis model
Assay type: in vivo
Details: for % of eyes with 0-10% inhibition of deep vascular layer / % of eyes with 10-25% inhibition of deep vascular layer / % of eyes with 25-50% inhibition of deep vascular layer / % of eyes with 50-75% inhibition of deep vascular layer / % of eyes with 75-100% inhibition of deep vascular layer / % of eyes with 100% inhibition of deep vascular layer / % of eyes with >95% inhibition of deep vascular layer: intravitreal P4, read P12
Excerpt: Description of the Model. Immediately after birth (postnatal day zero; “P0”), retinal vasculature is virtually absent in the mouse. By four weeks after birth (P28) the retina has attained an adult pattern of retinal vessels coincident with the onset of vision. Physiological neovascularization of the retina occurs during this period via a stereotypical, biphasic developmental pattern of angiogenesis. During the primary phase of retinal vascular development, spoke-like peripapillary vessels grow radially from the central retinal artery and vein, becoming progressively interconnected by a capillary plexus that forms between them. This “inner retinal plexus” grows in area, volume and complexity, centrifugally, as a monolayer within the nerve fiber layer during the first seven to ten days following birth.
The second phase of retinal vessel formation begins between postnatal days 7 (P7) and 10 (P10) when collateral branches sprout from capillaries of the superficial plexus and penetrate into the retina where their tips branch and anastamose laterally to form a planar “deep vascular plexus”. While the deep vascular plexus is in place by P14, it undergoes extensive remodeling from P14 to P21. It is of interest to note that the formation of these vascular networks in the neonatal mouse are strikingly similar to the events occurring in the third trimester human fetus.
Advantages and Quantification of the Model. The reproducibility of the murine retinal development process and its easy accessibility in neonatal animals provide an opportunity to assess the efficacy of antiangiogenic compounds in a physiologically relevant model of angiogenesis. Additional advantages of the neonatal mouse model are the ability to qualitatively and quantitatively evaluate the angiostatic effect of putative antagonists of angiogenesis. Angiostatic activity was evaluated based upon the degree of angiogenesis in the deep, outer retinal vascular layer (secondary layer) that develops between P8 and P12. The appearance of the inner blood vessel network (primary layer) was evaluated for normal development and signs of toxicity.
Preparation of Compositions. Peptidomimetic integrin signaling inhibitor Compound (1) is solubilized in PBS at a concentration of about 20 mg/ml in PBS (1× concentration). T2-TrpRS is solubilized in PBS at a concentration of about 0.5 mg/ml (1× concentration). VEGF aptamer (pegaptanib sodium; Compound (2)) is solubilized in PBS at a concentration of about 2 mg/ml (1× concentration) to achieve an injection of approximately 1 μg/eye at 1× concentration. For all combination assays the compounds were prepared at 2 or 3 times the 1× concentration of each material and then combined to produce a final solution containing each individual compound at the same concentration as was used alone (e.g., 1×, 0.5×, 0.25× or 0.1×, as the case may be). For all assays, a single injection of 0.5 μl of PBS solutions of the drugs was administered intravitreally regardless of the number of compounds being injected. As used herein, the term “0.1×” refers to one tenth of the 1× concentration of a given material, “0.25×” refers to one quarter of the 1× concentration of a given material, “0.5×” refers to one half of the 1× concentration of a given material, and so forth for similar designations.
An in vivo angiogenesis assay in the neonatal mouse (Balb/C, The Jackson Laboratory, Bar Harbor, Me.) was used to evaluate the angiostatic activity of integrin signaling inhibitor Compound (1), T2-TrpRS, and VEGF aptamer Compound (2). Intravitreous injection and retina isolation was performed with a dissecting microscope (SMZ 645, Nikon, Japan). […] The samples (0.5 μl) were injected with a Hamilton syringe fitted with a 32-gauge needle (Hamilton Company, Reno, Nev.). The injection was made between the equator and the corneal limbus. During injection, the location of the needle tip was monitored by direct visualization to determine that it was in the vitreal cavity. […]

[1] = Ex 2, 0.1× of each (1×: T2-TrpRS 0.5, Comp. (2) 2 mg/ml)
[2] = Ex 3, 1× of each (T2-TrpRS 0.5, Comp. (2) 2 mg/ml)
[3] = Ex 6, 1× of each (T2-TrpRS 0.5, Comp. (2) 2 mg/ml)
[4] = Ex 7, 1× (T2-TrpRS 0.5, Comp. (2) 2 mg/ml)
[5] = Ex 9, 1× of each (Comp. (1) 20, Comp. (2) 2, T2-TrpRS 0.5 mg/ml)

B1: T2-TrpRS: 43 kDa angiostatic T2 fragment of human tryptophanyl-tRNA synthetase, SEQ ID NO: 1 (protein)
chain: MSAKGIDYDKLIVRFGSSKIDKELINRIERATGQRPHHFLRRGIFFSHRDMNQVLDAYENKKPFYLYTGRGPSSEAMHVGHLIPFIFTKWLQDVFNVPLVIQMTDDEKYLWKDLTLDQAYSYAVENAKDIIACGFDINKTFIFSDLDYMGMSSGFYKNVVKIQKHVTFNQVKGIFGFTDSDCIGKISFPAIQAAPSFSNSFPQIFRDRTDIQCLIPCAIDQDPYFRMTRDVAPRIGYPKPALLHSTFFPALQGAQTKMSASDPNSSIFLTDTAKQIKTKVNKHAFSGGRDTIEEHRQFGGNCDVDVSFMYLTFFLEDDDKLEQIRKDYTSGAMLTGELKKALIEVLQPLIAEHQARRKEVTDEIVKEFMTPRKLSFDFQ
modifications: homo sapiens
0.1× concentrations (1 μg/eye integrin antagonist, 0.2 μg/eye VEGF aptamer, 0.025 μg/eye T2-TrpRS)
  inhibition of neovascularization: negligible
[1]
  % of eyes with 0-10% inhibition of deep vascular layer: 50%
  % of eyes with 10-25% inhibition of deep vascular layer: 37.5%
  % of eyes with 25-50% inhibition of deep vascular layer: 12.5%
  % of eyes with 50-75% inhibition of deep vascular layer: 0%
  % of eyes with 75-100% inhibition of deep vascular layer: 0%
  % of eyes with 100% inhibition of deep vascular layer: 0%
  % of eyes with >95% inhibition of deep vascular layer: 0%
[2]
  % of eyes with 0-10% inhibition of deep vascular layer: 12.5%
  % of eyes with 10-25% inhibition of deep vascular layer: 12.5%
  % of eyes with 25-50% inhibition of deep vascular layer: 0%
  % of eyes with 50-75% inhibition of deep vascular layer: 12.5%
  % of eyes with 75-100% inhibition of deep vascular layer: 62.5%
  % of eyes with 100% inhibition of deep vascular layer: 12.5%
  % of eyes with >95% inhibition of deep vascular layer: 12.5%
Ex 4, 1× (0.5 mg/ml)
  % of eyes with 0-10% inhibition of deep vascular layer: 12.5%
  % of eyes with 10-25% inhibition of deep vascular layer: 37.5%
  % of eyes with 25-50% inhibition of deep vascular layer: 12.5%
  % of eyes with 50-75% inhibition of deep vascular layer: 12.5%
  % of eyes with 75-100% inhibition of deep vascular layer: 25%
  % of eyes with 100% inhibition of deep vascular layer: 0%
  % of eyes with >95% inhibition of deep vascular layer: 0%
Ex 5, 1× (0.5 mg/ml)
  % of eyes with 0-10% inhibition of deep vascular layer: 33.3%
  % of eyes with 10-25% inhibition of deep vascular layer: 16.7%
  % of eyes with 25-50% inhibition of deep vascular layer: 33.3%
  % of eyes with 50-75% inhibition of deep vascular layer: 0%
  % of eyes with 75-100% inhibition of deep vascular layer: 16.7%
  % of eyes with 100% inhibition of deep vascular layer: 0%
  % of eyes with >95% inhibition of deep vascular layer: 16.7%
[3]
  % of eyes with 0-10% inhibition of deep vascular layer: 50%
  % of eyes with 10-25% inhibition of deep vascular layer: 25%
  % of eyes with 25-50% inhibition of deep vascular layer: 12.5%
  % of eyes with 50-75% inhibition of deep vascular layer: 12.5%
  % of eyes with 75-100% inhibition of deep vascular layer: 0%
  % of eyes with 100% inhibition of deep vascular layer: 0%
  % of eyes with >95% inhibition of deep vascular layer: 0%
[4]
  % of eyes with 0-10% inhibition of deep vascular layer: 25%
  % of eyes with 10-25% inhibition of deep vascular layer: 12.5%
  % of eyes with 25-50% inhibition of deep vascular layer: 12.5%
  % of eyes with 50-75% inhibition of deep vascular layer: 0%
  % of eyes with 75-100% inhibition of deep vascular layer: 50%
  % of eyes with 100% inhibition of deep vascular layer: 0%
  % of eyes with >95% inhibition of deep vascular layer: 12.5%
Ex 8, 1× (0.5 mg/ml)
  % of eyes with 0-10% inhibition of deep vascular layer: 30%
  % of eyes with 10-25% inhibition of deep vascular layer: 30%
  % of eyes with 25-50% inhibition of deep vascular layer: 20%
  % of eyes with 50-75% inhibition of deep vascular layer: 10%
  % of eyes with 75-100% inhibition of deep vascular layer: 10%
  % of eyes with 100% inhibition of deep vascular layer: 0%
  % of eyes with >95% inhibition of deep vascular layer: 0%
[5]
  % of eyes with 0-10% inhibition of deep vascular layer: 12.5%
  % of eyes with 10-25% inhibition of deep vascular layer: 0%
  % of eyes with 25-50% inhibition of deep vascular layer: 25%
  % of eyes with 50-75% inhibition of deep vascular layer: 12.5%
  % of eyes with 75-100% inhibition of deep vascular layer: 50%
  % of eyes with 100% inhibition of deep vascular layer: 0%
  % of eyes with >95% inhibition of deep vascular layer: 12.5%
Ex 10, 0.1× (1×=0.5 mg/ml)
  % of eyes with 0-10% inhibition of deep vascular layer: 75%
  % of eyes with 10-25% inhibition of deep vascular layer: 25%
  % of eyes with 25-50% inhibition of deep vascular layer: 0%
  % of eyes with 50-75% inhibition of deep vascular layer: 0%
  % of eyes with 75-100% inhibition of deep vascular layer: 0%
Ex 10, 0.3× (1×=0.5 mg/ml)
  % of eyes with 0-10% inhibition of deep vascular layer: 33.3%
  % of eyes with 10-25% inhibition of deep vascular layer: 16.7%
  % of eyes with 25-50% inhibition of deep vascular layer: 8.3%
  % of eyes with 50-75% inhibition of deep vascular layer: 16.7%
